First the molecules themselves.
B1: FLAG-tagged KIR2DL2, full-length, wild type, on 293T cells [human] / HLA-C*03:04-GL9 tetramer (phycoerythrin-conjugated) [modified: biotin (enzymatically, with biotin ligase)] [human] (parent)
chain 1: HEGVHRKPSLLAHPGRLVKSEETVILQCWSDVRFEHFLLHREGKFKDTLHLIGEHHDGVSKANFSIGPMMQDLAGTYRCYGSVTHSPYQLSAPSDPLDIVITGLYEKPSLSAQPGPTVLAGESVTLSCSSRSSYDMYHLSREGEAHECRFSAGPKVNGTFQADFPLGPATHGGTYRCFGSFRDSPYEWSNSSDPLLVSVIGNPSNSWPSPTEPSSKTGNPRHLHILIGTSVVIILFILLFFLLHRWCSNKKNAAVMDQESAGNRTANSEDSDEQDPQEVTYTQLNHCVFTQRKITRPSQRPKTPPTDIIVYAELPNAESRSKVVSCP
chain 2: not shown
chain 3: not shown
chain 4: GAVDPLLAL
B2: FLAG-tagged KIR2DL3, full-length, wild type, on 293T cells [human] / HLA-C*07:02-RL9 tetramer (phycoerythrin-conjugated) [modified: biotin (enzymatically, with biotin ligase)] [human | not stated] (parent)
chain 1: HEGVHRKPSLLAHPGPLVKSEETVILQCWSDVRFQHFLLHREGKFKDTLHLIGEHHDGVSKANFSIGPMMQDLAGTYRCYGSVTHSPYQLSAPSDPLDIVITGLYEKPSLSAQPGPTVLAGESVTLSCSSRSSYDMYHLSREGEAHERRFSAGPKVNGTFQADFPLGPATHGGTYRCFGSFRDSPYEWSNSSDPLLVSVTGNPSNSWPSPTEPSSETGNPRHLHVLIGTSVVIILFILLLFFLLHRWCCNKKNAVVMDQEPAGNRTVNREDSDEQDPQEVTYAQLNHCVFTQRKITRPSQRPKTPPTDIIVYTELPNAEP
chain 2: not shown
chain 3: not shown
chain 4: RYRPGTVAL
B3: FLAG-tagged KIR2DL2, full-length, wild type, on 293T cells [human] / HLA-C*07:02-RL9 tetramer (phycoerythrin-conjugated) [modified: biotin (enzymatically, with biotin ligase)] [human | not stated] (parent)
chain 1: B1 chain 1
chain 2: not shown
chain 3: not shown
chain 4: RYRPGTVAL
B4: FLAG-tagged KIR2DL3, full-length, wild type, on 293T cells [human] / HLA-C*03:04-GL9 tetramer (phycoerythrin-conjugated) [modified: biotin (enzymatically, with biotin ligase)] [human] (parent)
chain 1: B2 chain 1
chain 2: not shown
chain 3: not shown
chain 4: GAVDPLLAL

Variants of B1 are the subject of one assay. Kind of assay: flow cytometry, HLA tetramer staining of transfected 293T cells. The note with it: with HLA-C*03:04-GL9 tetramer (phycoerythrin-conjugated) [modified: biotin (enzymatically, with biotin ligase)] [human]; percentage tetramer+ normalised to percentage FLAG+; read off a plot.
chain 1 F181A: the ratio to parent stood at 0.05.

In the next assay the parent is B2. Described as above. The note with it: with HLA-C*07:02-RL9 tetramer (phycoerythrin-conjugated) [modified: biotin (enzymatically, with biotin ligase)] [human | not stated]; percentage tetramer+ normalised to percentage FLAG+; read off a plot.
In the case of chain 1 F181A, the ratio to parent amounted to 0.06.

Variants of B3 are the subject of another assay. Described as above. The note with it: with HLA-C*07:02-RL9 tetramer (phycoerythrin-conjugated) [modified: biotin (enzymatically, with biotin ligase)] [human | not stated]; percentage tetramer+ normalised to percentage FLAG+; read off a plot.
In the case of chain 1 F181A, the ratio to parent stood at 0.02.

In a further assay the parent is B4. The description is as above. The note with it: with HLA-C*03:04-GL9 tetramer (phycoerythrin-conjugated) [modified: biotin (enzymatically, with biotin ligase)] [human]; percentage tetramer+ normalised to percentage FLAG+; read off a plot.
On to chain 1 F181A, for which the ratio to parent came to 0.07.

These data come from paper PMC8041999.
